We go through one molecule from US20090062150A1 (published 2009).

The target in this assay is T1, 7-mer (AGAIAGG) derived from Toxoplasma gondii micronemal proteins (MIC2) (Toxoplasma gondii).
T1 construct: also called MIC2 peptide; MC2
Briefly: crystal soak, X-ray structure.

B1: N-terminally truncated GlpG transmembrane core domain (residues 87-276), E. coli rhomboid protease (enzyme)
chain: AALRERAGPVTWVMMIACVVVFIAMQILGDQEVMLWLAWPFDPTLKFEFWRYFTHALMHFSLMHILFNLLWWWYLGGAVEKRLGSGKLIVITLISALLSGYVQQKFSGPWFGGLSGVVYALMGYVWLRGERDPQSGIYLQRGLIIFALIWIVAGWFDLFGMSMANGAHIAGLAVGLAMAFVDSLNARKRK
notes: range 87-276; also called GlpG core; truncated GlpG core domain
Consider B1, for which the binding result was “binds”.
